Key:
Test in all cases: fluorescence protection assay
Thrombin = Thrombin (UniProt P00734;P00734 328-363;364-622)
alpha-fetoprotein (AFP) = target: T1, alpha-fetoprotein (AFP) (UniProt P02771 19-609)
T1 sequence: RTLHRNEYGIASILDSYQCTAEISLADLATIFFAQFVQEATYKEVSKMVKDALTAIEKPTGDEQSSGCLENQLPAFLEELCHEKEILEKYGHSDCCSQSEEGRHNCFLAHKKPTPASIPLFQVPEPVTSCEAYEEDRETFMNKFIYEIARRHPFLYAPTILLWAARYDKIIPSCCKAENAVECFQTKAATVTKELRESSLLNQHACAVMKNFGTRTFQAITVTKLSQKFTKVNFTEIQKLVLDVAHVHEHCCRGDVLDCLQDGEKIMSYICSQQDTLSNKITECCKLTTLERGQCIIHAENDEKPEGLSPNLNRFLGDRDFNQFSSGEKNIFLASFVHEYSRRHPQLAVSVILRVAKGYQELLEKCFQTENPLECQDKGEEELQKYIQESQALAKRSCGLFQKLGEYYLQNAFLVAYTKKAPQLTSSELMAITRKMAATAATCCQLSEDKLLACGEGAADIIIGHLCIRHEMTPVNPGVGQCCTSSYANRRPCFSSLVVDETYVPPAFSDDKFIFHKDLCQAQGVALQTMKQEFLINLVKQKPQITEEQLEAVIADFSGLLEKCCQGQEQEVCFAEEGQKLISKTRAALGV

[1] = target: Carcinoembryonic antigen (CEA) (UniProt P06731 35-685)

Measured: binding result

Chain of Carcinoembryonic antigen (CEA) (P06731 35-685): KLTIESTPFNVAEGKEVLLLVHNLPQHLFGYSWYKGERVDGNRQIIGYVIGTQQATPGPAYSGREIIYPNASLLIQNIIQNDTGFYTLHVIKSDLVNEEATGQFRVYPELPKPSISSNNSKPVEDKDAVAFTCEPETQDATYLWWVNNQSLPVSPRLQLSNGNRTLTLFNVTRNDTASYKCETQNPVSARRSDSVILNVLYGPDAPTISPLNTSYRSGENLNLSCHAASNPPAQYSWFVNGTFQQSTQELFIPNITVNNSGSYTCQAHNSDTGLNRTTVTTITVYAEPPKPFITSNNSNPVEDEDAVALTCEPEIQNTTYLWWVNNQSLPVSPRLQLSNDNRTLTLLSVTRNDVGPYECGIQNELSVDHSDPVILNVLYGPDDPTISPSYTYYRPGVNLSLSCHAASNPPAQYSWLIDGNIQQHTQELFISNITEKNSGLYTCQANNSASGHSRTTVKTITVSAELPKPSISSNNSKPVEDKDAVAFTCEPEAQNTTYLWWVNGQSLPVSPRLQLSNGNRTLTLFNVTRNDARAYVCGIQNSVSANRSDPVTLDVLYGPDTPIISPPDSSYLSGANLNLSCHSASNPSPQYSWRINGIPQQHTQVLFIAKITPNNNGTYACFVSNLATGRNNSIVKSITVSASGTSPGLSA

GCGCGGGGCACGTTTATCCGTCCCTCCTAGTGGCGTGCCCCGCGC (structured_DNA, FITC-modified T at Site 1 (position only in Fig 2A)) [IgE aptamer, FITC at Site 1]
no binding: all assays above
